This sample holds only a part of the variants without activity.
B1: TPR 5TU (parent)
chain: GGAUCUUCUCGAUCUAACAAAAAAGACAAAUCUGCCACAAAGCUUGAGAGCAUCUUCGGAUGCAGAGGCGGCAGCCUUCGGUGGCGCGAUAGCGCCAACGUUCUCAACUAUGACACGCAAAACGCGUGCUCCGUUGAAUGGAGUUUAUCAUG

Variants of: B1
Test: polymerase ribozyme fitness, log enrichment relative to wild type (log ratio); higher = more active; in vitro selection for triplet polymerase activity
In short: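 For each subunit of a heterodimeric triplet polymerase ribozyme, a mutant library was built by PCR and transcribed, then taken through a single in vitro selection round in triplicate. Selection involved annealing to a biotinylated primer, the partner subunit and triplets, incubation frozen at −7 °C, gel excision of extended constructs, capture on streptavidin beads and RT-PCR. Genotypes were retained after Illumina sequencing of inputs and outputs only with ≥10 input reads and ≥1 read in each output. Fitness is defined as the logarithm of a genotype's enrichment relative to wild-type enrichment, using inverse-variance-weighted averages across replicates, with the logarithm taken to base 2.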

Which “polymerase ribozyme fitness (log ratio)” value does the source give for GGAUCUUCUCGAUCUAACAAAAAAGUCAAAUCUGCCACAAAGCUUGAGAGCAUCUUCGGAUGGAGAGGCGGCAGCCUUCCGUGGGGCGAUAGCGCCAACGUUCUCAACGAUGACACGCAAAUCGCGUGCUCCGUUGAAUGGAGUUUAUCAUG [A26U C63G G80C C85G U109G A122U] here?
Its value is at most -4.2.

For GGAUCUUCUCGAUCUAACAAAAAAGGCAAAUCUGCCACAAAGCUUGACGGCAUCUUCGGAUGCAGAGGCGGCGGCUUUCGGUCGCGCGAUAUCGCCAACGUUCUCAACUAUGACACGCAAAACGCGUGCUCCGUUGAAUGGAGUUUACCAUG [A26G G48C A49G A73G C76U G83C G92U U148C], which “polymerase ribozyme fitness (log ratio)” value is on record?
The value was at most -4.2.

For GGAUCUUCUCGAUCUAACAAAAAAGGCAAAUCUGCCACAAAGCUUGAGAGCAUGUUUGGAUGCAGAGGCGGCAGCCUUCGGUGGCGCGAUAGCGCUAACGUUCUCAACUAUGACACGCAAAACGCGUGCUCUGUUGAAUGGAGUUUAUCAUG [A26G C54G C57U C96U C132U], which “polymerase ribozyme fitness (log ratio)” value is on record?
Its value is at most -4.2.

With GGAUCUUCUCGAUCUAACAAAAAAGUCAAAUCUGCCACAAAGCUUGAGAGCAUGUUCGGAUGCAGAGGCGGCAGCCUUCGGUGGCGCGAUAGCGCCAACGUUCUCAACUAUGACACGCAAAACGCGUGCUCCGUUGAAUGGAGUUUAUCAUG [A26U C54G] as the variant, how does the “polymerase ribozyme fitness (log ratio)” value read?
Its value is -3.33.

With GGAUCUUCUCGAUCUAACAAAAAAGUCAUAUCUGCCACAAAGCUUGAGAGCAUCUUCGGAUUCAGAGGCGGCAGCCUUCGGUGGCGCGAUAGCGCCAAUGUUCUCAACUAUGACACGCAAAACGUGUGCUCCGAUGAAUGGAGUUUAUCAUG [A26U A29U G62U C99U C125U U134A] as the variant, how does the “polymerase ribozyme fitness (log ratio)” value read?
Its value is -4.08.

Which “polymerase ribozyme fitness (log ratio)” value does the source give for GGAUCUUCUCGAUCUAACAAAAAAGGCAAAUCUGCCACAAAGCUUGAGAGCAUCUUCGGAUGCAGAGGCGGCAGCCUUCGGUGGCGCGAUAGAGCCAACGUUCUCAACUAUGACACGCAAAACACGUGCUCCGUUGAAUGGAGUUUAUCAUG [A26G C93A G124A] here?
The value was -4.18.

With GGAUCUUCUCGAUCUAACAAAAAAGUCAAAUCUGCAACAAAGCUUGAGAGCAUCUGCGGAUGCAGAGGCGGCAGCCUUCGGUGGCGCGAUAGCGCCAACGUUCUCAAAUAUGACACGCAAAACGCGUGCUCCGUUGCAUGGAGUUUAUCAUG [A26U C36A U56G C108A A137C] as the variant, how does the “polymerase ribozyme fitness (log ratio)” value read?
The value was at most -4.2.

With GGAUCUUCUCGAUCUAACAAAAAAGUCAAAUCUGCCACAACGCUUGAGUGCAACUUCGGAUGCAGAGGCGGCAGCCUUCGGUGGCGCGAUAGCGUCAACGUUCUCAACUAUGACACGCAAAACGCGUGCACAGUUGAAUGGAAUUUACCAUG [A26U A41C A49U U53A C95U U130A C132A G143A U148C] as the variant, how does the “polymerase ribozyme fitness (log ratio)” value read?
The value was at most -4.2.

With GGAUCUUCUCGAUCUAACAAAAAAGUCAAAUCUGCCACAAAGCUUGAGAGCAUGUUCGGAUGCAGAGGCGGCAGCCUUCGGUGGCGCGAUAGCGCCAACGUUCUCAACUAUGACACGCAAAACGCGUGCUCCGUUGAAUGGAGUUUAACAUG [A26U C54G U148A] as the variant, how does the “polymerase ribozyme fitness (log ratio)” value read?
Its value is at most -4.2.

For GGAUCUUCUCGAUCUAACAAAAAAGUCAACUCUGCCACAAAGCUUGAGGGCAUCUUCGGAUGCAGAGGCGGCAGCCUUCGGUGGCGCGAUACCGCCAACGUUCUCAACUAUGACACGCAAAACGCGUGCUCCGUUGAAUGGAGUUUAUCAUG [A26U A30C A49G G92C], which “polymerase ribozyme fitness (log ratio)” value is on record?
Its value is at most -4.2.

Which “polymerase ribozyme fitness (log ratio)” value does the source give for GGAUCUUCUCGAUCUAACAAAAAAGGCAAAUCUGCGACAAAGCUUGAGAGCAUCUUAGGAUGCAGAGGCGGCAGCCUUCGGUGGCGCGAUAGCUCCAACGUUCUCAACUAUGACACGCAAAACGCGUGCUCCGUUGAAUGGUGUUUAUCAUC [A26G C36G C57A G94U A142U G152C] here?
Its value is at most -4.2.

With GGAUCUUCUCGAUCUAACAAAAAAGGCAAAUCUGCCACAAAGCUUGAGACCAUCUUCGGAUGCAGAGGCGGCAGCCUUCGGUGGCGCGAUGGCGCCAACGUUCUCAACUAUGACACACAAAACGUGUGCUCCGUUGAAUAGACUUUAUCAUG [A26G G50C A91G G117A C125U G140A G143C] as the variant, how does the “polymerase ribozyme fitness (log ratio)” value read?
Its value is at most -4.2.

Which “polymerase ribozyme fitness (log ratio)” value does the source give for GGAUCUUCUCGAUCUAACAAAAAAGUCAAAUCUGCCACAAAGCUUGAGAGUAUCUUCGGAUGCAGAGGCGGCAGCCUUCGGUGGCGCGGUAGCGCCAACGUUCUGAACUAUGACACGCAAAACGCGUGCUCCGGUGAAUGGAGAUUAUCAUG [A26U C51U A89G C105G U134G U144A] here?
Its value is at most -4.2.

Which “polymerase ribozyme fitness (log ratio)” value does the source give for GGAUCUUCUCGAUCUAACAAAAAAGUCAAAUCUGCCACAUAGCUUGAGAGCAUCUUCGGAUGCAGAGGCGGCAGCCUUCGGUGGCGCGAUAGCGCCAACGUUCUCAACUAUGACACGCAUAACGCGUGCUCCGUUGAAUGGAGUUUAUCAUG [A26U A40U A120U] here?
Its value is -2.33.

With GGAUCUUCUCGAUCUAACAAAAAAGGCAAAUCUGCCACAAAGCUUGAGAGCAUCUUCCGGUGCAGAGGCGGCAGCCUUCGGCGGCGCGAUAGGGCCAUCGUUAUGAACUAUGACACGCAAAACGCGUGCUCCGUUGAAUGGAUUUUAUCAUG [A26G G58C A60G U82C C93G A98U C103A C105G G143U] as the variant, how does the “polymerase ribozyme fitness (log ratio)” value read?
The value was at most -4.2.

With GGAUCUUCUCGAUCUAACAAAAAAGGCAAAUCUGCCACAAAGCUUUAGAGCGUCUUCGGAUGCAGAGGCGGCAGCCUUCGGUGGCGCGAUAGCGCCAACGUUCUCAACUAUGACAUGCAAAACGCGUGCUCCGUUGAAUCGACUUUAUCAUG [A26G G46U A52G C116U G140C G143C] as the variant, how does the “polymerase ribozyme fitness (log ratio)” value read?
The value was at most -4.2.

With GGAUCUUCUCGAUCUAACAAAAAAGGCAAAUCUGCCACAAAGCUUGAGAGCAUCUUCGGAUGCAGAGACGGCAGCCUUCGGUGGGGCGAUAGCGCCAACGUUCUCAACUAUGACACGCACAACGCGUGCUCCGUUGAAUGGAGUUUAUCAUG [A26G G68A C85G A120C] as the variant, how does the “polymerase ribozyme fitness (log ratio)” value read?
The value was at most -4.2.

With GGAUCUUCUCGAUCUAACAAAAAAGUAAUAUCUACCACAAAGCUUGAGAGCAUCUUCGGAAGCAGAGGCGGCAGCGUUCGGUGGCGCGAUAGCGCCAACGUUCUCAACUAUGACACGCAAAACGCGUGCUCCGUUGAAUGGAGUUUAUCAUG [A26U C27A A29U G34A U61A C76G] as the variant, how does the “polymerase ribozyme fitness (log ratio)” value read?
The value was at most -4.2.

Which “polymerase ribozyme fitness (log ratio)” value does the source give for GGAUCUUCUCGAUCUAACAAAAAAGUCAAAUCUGCCACAAAGCUUGAGAGCAUCUUCGGAUGCAGAGGCGGCAGCCUUCGGUGGCGCGAUAGCGCCAACGUUCUCAGCUAUGACACGCAAAACGCGUGCUCCGUUGAAUGAAGUUUAUCAUG [A26U A107G G141A] here?
Its value is at most -4.2.

From the RNAGym collection of RNA variant scans (doi:10.1073/pnas.2313332121)
